In test [1] the target is T1, Recombinant human IL-18 (human, UniProt Q14116 37-193).
T1 construct: Used unlabeled or biotinylated depending on the assay step; also called Hu IL-18; hr IL-18
T1 sequence: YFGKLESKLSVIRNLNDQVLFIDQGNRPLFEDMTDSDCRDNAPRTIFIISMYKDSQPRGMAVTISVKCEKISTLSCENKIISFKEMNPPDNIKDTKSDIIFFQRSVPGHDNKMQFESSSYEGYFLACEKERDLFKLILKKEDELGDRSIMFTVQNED
Kind of test: solution equilibrium titration (SET), ECL detection.

In a further test the target is T2, IL-18/IL-18BP complex (human, UniProt O95998 31-194, biotinylated in the first ELISA setup, unbiotinylated in the second).
T2 construct: also called biotinylated IL-18/IL18-BP complex; not shown: human IgG1 Fc tag
T2 sequence 1: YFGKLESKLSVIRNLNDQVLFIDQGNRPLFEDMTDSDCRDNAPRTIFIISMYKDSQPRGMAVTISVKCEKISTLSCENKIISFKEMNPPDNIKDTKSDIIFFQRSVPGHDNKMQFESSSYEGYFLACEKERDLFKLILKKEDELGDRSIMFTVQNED
T2 sequence 2: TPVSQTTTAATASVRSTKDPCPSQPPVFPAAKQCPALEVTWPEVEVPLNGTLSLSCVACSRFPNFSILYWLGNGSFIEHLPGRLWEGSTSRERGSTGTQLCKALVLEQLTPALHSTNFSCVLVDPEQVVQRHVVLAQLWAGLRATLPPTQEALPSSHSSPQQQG
Kind of test: ELISA, first set-up: antibody titrated and incubated with the biotinylated human IL-18/rhIL-18BP-Fc complex, captured on NeutrAvidin plate, AP-labelled anti-human F(ab)2, AttoPhos fluorescence [A]. For orientation: An ELISA detects its analyte on a solid surface through an enzyme-linked reagent.

Test [2] concerns the target T3, Recombinant cynomolgus IL-18 (cynomolgus monkey, UniProt Q14116 37-193 (human entry)).
T3 chain: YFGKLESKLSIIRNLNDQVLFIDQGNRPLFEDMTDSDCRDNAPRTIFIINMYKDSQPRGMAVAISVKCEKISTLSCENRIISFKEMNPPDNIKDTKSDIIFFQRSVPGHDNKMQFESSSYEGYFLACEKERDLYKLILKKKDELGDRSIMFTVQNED
Kind of test: cell-based or functional assay.

Test [3] deals with T1, Recombinant human IL-18. Kind of test: cell-based or functional assay.
The target in test [4] is T4, Native human IL-18 (human, UniProt Q14116 37-193).
T4 sequence: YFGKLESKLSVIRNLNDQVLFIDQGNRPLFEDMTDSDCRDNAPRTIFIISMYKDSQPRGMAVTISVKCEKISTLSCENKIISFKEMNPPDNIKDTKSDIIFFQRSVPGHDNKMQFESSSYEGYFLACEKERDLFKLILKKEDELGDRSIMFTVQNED
Kind of test: cell-based or functional assay.

The target in test [5] is T1, Recombinant human IL-18. Put plainly: solution equilibrium titration (SET), ECL detection; human IL-18; unbracketed value, column Hu IL-18.
Test [6] deals with T3, Recombinant cynomolgus IL-18. Put plainly: solution equilibrium titration (SET), ECL detection; value in brackets = cynomolgus IL-18; bracketed value.
Test [7] concerns the target T1, Recombinant human IL-18. Kind of test: cell-based or functional assay. This is another data set of the same source.
Test [8] addresses T4, Native human IL-18. Kind of test: cell-based or functional assay. The source holds these as a separate data set.
Test [9] deals with T1, Recombinant human IL-18. Kind of test: cell-based or functional assay. This is another data set of the same source.
The target in test [10] is T4, Native human IL-18. Kind of test: cell-based or functional assay. The source holds these as a separate data set.
Test [11] concerns the target T3, Recombinant cynomolgus IL-18. Put plainly: ratio of SET KD values, cynomolgus against human IL-18.

Like-named read-outs stand apart in the source and are kept apart here.

B1: MOR08775 (antibody, human IgG1, lambda, V domains shown)
VH: QVQLVQSGAEVKKPGSSVKVSCKASGGTFNSYAISWVRQAPGQGLEWMGGIIPIYGTANYAQKFQGRVTITADESTSTAYMELSSLRSEDTAVYYCARAAYHPLVFDNWGQGTLVTVSS
VL: DIVLTQPPSVSGAPGQRVTISCSGSSSNIGNHYVNWYQQLPGTAPKLLIYRNNHRPSGVPDRFSGSKSGTSASLAITGLQSEDEADYYCQSWDYSGFSTVFGGGTKLTVLG
notes: also called MOR8775
As usually defined, the Kd is the free concentration of one partner at which half of the binding sites on the other are occupied at equilibrium, for simple one-to-one binding. On to B1, for which the Kd with Recombinant human IL-18 [1] was determined as 0.065 nM. For the same molecule, the binding result with IL-18/IL-18BP complex is listed as “no binding (tested: about 800 nM)”. Further, in [2], the “IC50, inhibition of IFN-γ release, KG-1 cells, Cyno IL-18” value came to 22 nM. Moreover, in the test with Recombinant human IL-18 [3], the “IC50, inhibition of IFN-γ release, KG-1 cells, Hu IL-18 (1 nM)” value amounted to 68 nM and the “IC50, inhibition of IFN-γ release, PBMC, Hu IL-18 (recombinant)” value came to 9.2 nM. For the same molecule, the “IC50, inhibition of IFN-γ release, PBMC, Native IL-18 (LPS/IL-12)” value in the test with Native human IL-18 [4] turned out to be 0.7 nM.

B2: MOR9464_N30K (antibody, human IgG1, lambda, L234A L235A, V domains shown)
VH: EVQLVQSGAEVKKPGSSVKVSCKASGGTFKSYAISWVRQAPGQGLEWMGNIIPMTGQTYYAQKFQGRVTITADESTSTAYMELSSLRSEDTAVYYCARAAYHPLVFDNWGQGTLVTVSS
VL: DIVLTQPPSVSGAPGQRVTISCSGSSSNIGNHYVNWYQQLPGTAPKLLIYRNNHRPSGVPDRFSGSKSGTSASLAITGLQSEDEADYYCQSWDYSGFSTVFGGGTKLTVLG
notes: also called MOR09464_N30K
Turning to B2, the Kd with Recombinant human IL-18 [5] was determined as 0.002 nM; in test [6], 0.02 nM. In the test with Recombinant human IL-18 [7], the “IC50, inhibition of IFN-γ release, human whole blood, recombinant human IL-18 (7 nM)” value was found to be 8.62 nM. Besides, the “IC50, inhibition of IFN-γ release, human whole blood, LPS/IL-12 (native IL-18)” value with Native human IL-18 [8] was 17.1 nM. Also, the “IC50, inhibition of IFN-γ release, KG-1 cells, Cyno IL-18” value in [2] came out at 4.7 nM. Also, the “IC50, inhibition of IFN-γ release, KG-1 cells, Hu IL-18 (1 nM)” value with Recombinant human IL-18 [3] and with Recombinant human IL-18 [9] was 0.36 nM each time. The “IC50, inhibition of IFN-γ release, PBMC, Native IL-18 (LPS/IL-12)” value with Native human IL-18 [4] and with Native human IL-18 [10] was 0.2 nM in each case. In [11], the “fold weaker than against human IL-18” value was determined as 10 fold.
